B1: TCN-542 (5079_A16) (antibody, V domains shown)
VH: QVQLQESGPGLVKPSQTLSLTCTVSGGSISSGNYYWNWVRQHPGKGLEWIGYIYYRGSTFYNPSLKSRVTISIDTSKNQFSLRLSSVTAADTAVYYCAKDTRSSLDNYQYGMDVWGQGTTVTVSS
VL: QTVVTQEPSLTVSPGGTVTLTCASSTGAVTSSYFPNWFQQKPGQAPRPLIYSTTIRHSWTPARFSGSLLGGKAALTLSGVQPEDEADYYCLLYSGGDPVAFGGGTKLTVL
B2: TCN-544 (5082_A19) (antibody, V domains shown)
VH: QVQLQESGPGLVKPSETLSLTCTVSRGSIGHYFWSWIRQPPGKGLEWIGYISYSGSTKYNPSLRSRVTISVDTSKNQFSLNLNSVTATDTALYYCAREDYDILTGAGPGMEVWGQGTTVTVSS
VL: QSMLTQPPSASGTPGQRVTISCSGSSSNIGSNTVNWFKHLPGTAPKLLIYRNDLRPSGVPDRFSGSKSGTSASLAISGLQSEDEADYYCATWDDSLNGFYVFGTGTKVTVL

What was measured:
Settings in all cases: remark: other sources report otherwise
[1] = target: recombinant homotrimeric HA A/Japan/305/57 H2N2 (Influenza A virus A/Japan/305/1957(H2N2)); experiment: protein microarray, purified IgG, trimeric HA
[2] = target: recombinant homotrimeric HA A/Vietnam/1203/04 H5N1 (Influenza A virus A/VietNam/1203/2004(H5N1)); experiment: protein microarray, purified IgG, trimeric HA
[3] = target: recombinant homotrimeric HA A/California/4/09 H1N1 (Influenza A virus A/California/04/2009(H1N1)); experiment: protein microarray, purified IgG, trimeric HA
[4] = target: recombinant homotrimeric HA A/duck/Yangzhou/02/05 H8N4 (Influenza A virus A/duck/Yangzhou/02/2005(H8N4)); experiment: protein microarray, purified IgG, trimeric HA
[5] = target: recombinant homotrimeric HA A/Egypt/3300-NAMRU3/08 H5N1 (Influenza A virus A/Egypt/3300-NAMRU3/2008(H5N1)); experiment: protein microarray, purified IgG, trimeric HA
[6] = target: recombinant homotrimeric HA A/Hong Kong/156/97 H5N1 (Influenza A virus A/Hong Kong/156/97 (H5N1)); experiment: protein microarray, purified IgG, trimeric HA
[7] = target: recombinant homotrimeric HA A/South Carolina/1/18 H1N1 (Influenza A virus A/South Carolina/1/18 (H1N1)); experiment: protein microarray, purified IgG, trimeric HA
[8] = target: recombinant homotrimeric HA A/Indonesia/5/05 H5N1 (Influenza A virus A/Indonesia/5/2005(H5N1)); experiment: protein microarray, purified IgG, trimeric HA
[9] = target: recombinant homotrimeric HA A/Anhui/1/05 H5N1 (Influenza A virus A/Anhui/1/2005(H5N1)); experiment: protein microarray, purified IgG, trimeric HA
[10] = target: recombinant homotrimeric HA A/Hong Kong/1073/99 H9N2 (Influenza A virus A/Hong Kong/1073/99 (H9N2)); experiment: protein microarray, purified IgG, trimeric HA
[11] = target: T1, recombinant soluble homotrimeric HA of A/Netherlands/219/03 (H7N7) (Influenza A virus A/Netherlands/219/03(H7N7)); experiment: HA microarray, BCC supernatant
[12] = target: T2, recombinant soluble homotrimeric HA of A/duck/Yangzhou/02/05 (H8N4) (Influenza A virus A/duck/Yangzhou/02/2005(H8N4)); experiment: HA microarray, BCC supernatant
[13] = target: T3, recombinant soluble homotrimeric HA of A/Japan/305/57 (H2N2) (Influenza A virus A/Japan/305/1957(H2N2)); experiment: HA microarray, BCC supernatant
[14] = target: T4, recombinant soluble homotrimeric HA of A/Vietnam/1203/04 (H5N1) (Influenza A virus A/VietNam/1203/2004(H5N1)); experiment: HA microarray, BCC supernatant
[15] = target: T5, recombinant soluble homotrimeric HA of A/swine/Ontario/01911-2/99 (H4N6) (Influenza A virus A/Swine/Ontario/01911-2/99 (H4N6)); experiment: HA microarray, BCC supernatant
[16] = target: T6, recombinant soluble homotrimeric HA of A/northern shoveler/California/HKWF115/07 (H6) (Influenza A virus A/northern shoveler/California/HKWF115/2007(H6N1)); experiment: trimeric HA microarray, transfection supernatant set 5
[17] = target: recombinant soluble homotrimeric HA of A/Anhui/1/05 (H5N1) (Influenza A virus A/Anhui/1/2005(H5N1)); experiment: as above
[18] = target: T2, recombinant soluble homotrimeric HA of …; experiment: as above
[19] = target: recombinant soluble homotrimeric HA of A/Egypt/3300-NAMRU3/08 (H5N1) (Influenza A virus A/Egypt/3300-NAMRU3/2008(H5N1)); experiment: as above
[20] = target: T7, recombinant soluble homotrimeric HA of A/chicken/Vietnam/NCVD-016/08 (H5N1) (Influenza A virus A/chicken/Vietnam/NCVD-016/2008(H5N1)); experiment: as above
[21] = target: T4, recombinant soluble homotrimeric HA of …; experiment: as above
[22] = target: recombinant soluble homotrimeric HA of A/South Carolina/1/18 (H1N1) (Influenza A virus A/South Carolina/1/18 (H1N1)); experiment: as above
[23] = target: recombinant soluble homotrimeric HA of A/Hong Kong/156/97 (H5N1) (Influenza A virus A/Hong Kong/156/97 (H5N1)); experiment: as above
[24] = target: T5, recombinant soluble homotrimeric HA of …; experiment: as above
[25] = target: recombinant soluble homotrimeric HA of A/Indonesia/5/05 (H5N1) (Influenza A virus A/Indonesia/5/2005(H5N1)); experiment: as above
[26] = target: recombinant homotrimeric HA A/chicken/Vietnam/NCVD-016/08 H5N1 (Influenza A virus A/chicken/Vietnam/NCVD-016/2008(H5N1)); experiment: protein microarray, purified IgG, trimeric HA
[27] = target: recombinant homotrimeric HA A/northern shoveler/California/HKWF115/07 H6N4 (Influenza A virus A/northern shoveler/California/HKWF115/2007(H6N1)); experiment: protein microarray, purified IgG, trimeric HA
[28] = target: recombinant homotrimeric HA A/Hong Kong/2108/03 H9N2 (Influenza A virus A/HK/2108/2003(H9N2)); experiment: protein microarray, purified IgG, trimeric HA
[29] = target: recombinant homotrimeric HA A/swine/Ontario/01911-2/99 H4N6 (Influenza A virus A/Swine/Ontario/01911-2/99 (H4N6)); experiment: protein microarray, purified IgG, trimeric HA
[30] = target: recombinant homotrimeric HA A/Solomon Islands/3/06 H1N1 (Influenza A virus A/Solomon Islands/3/2006(H1N1)); experiment: protein microarray, purified IgG, trimeric HA
[31] = target: recombinant homotrimeric HA A/Netherlands/219/03 H7N7 (Influenza A virus A/Netherlands/219/03(H7N7)); experiment: protein microarray, purified IgG, trimeric HA
[32] = target: T8, recombinant soluble homotrimeric HA of A/Solomon Islands/3/06 (H1N1) (Influenza A virus A/Solomon Islands/3/2006(H1N1)); experiment: HA microarray, BCC supernatant
[33] = target: T6, recombinant soluble homotrimeric HA of …; experiment: HA microarray, BCC supernatant
[34] = target: T7, recombinant soluble homotrimeric HA of …; experiment: HA microarray, BCC supernatant
[35] = target: T9, recombinant soluble homotrimeric HA of A/California/4/09 (H1N1) (Influenza A virus A/California/04/2009(H1N1)); experiment: HA microarray, BCC supernatant
[36] = target: T8, recombinant soluble homotrimeric HA of …; experiment: trimeric HA microarray, transfection supernatant set 5
[37] = target: T1, recombinant soluble homotrimeric HA of …; experiment: as above
[38] = target: T3, recombinant soluble homotrimeric HA of …; experiment: as above
[39] = target: T9, recombinant soluble homotrimeric HA of …; experiment: as above

Row | Binder | Trimeric HA Binding: RLU [1] [RLU] | Trimeric HA Binding: RLU [3] [RLU] | Trimeric HA Binding: RLU [4] [RLU] | Trimeric HA Binding: RLU [5] [RLU] | Trimeric HA Binding: RLU [7] [RLU] | Trimeric HA Binding: RLU [10] [RLU] | Trimeric HA Binding: RLU [11] [RLU] | Trimeric HA Binding: RLU [12] [RLU] | Trimeric HA Binding: RLU [13] [RLU] | Trimeric HA Binding: RLU [15] [RLU] | Trimeric HA Binding: RLU [16] [RLU] | Trimeric HA Binding: RLU [18] [RLU] | Trimeric HA Binding: RLU [19] [RLU] | Trimeric HA Binding: RLU [20] [RLU] | Trimeric HA Binding: RLU [22] [RLU] | Trimeric HA Binding: RLU [24] [RLU] | also measured
1 | B1 | 502 | 238 | 182 | 730 | 117 | 588 | 909 | 332 | 142 | 350 | 2370 | 11600 | 14800 | 5460 | 1120 | 14300 | Trimeric HA Binding: RLU [2]: 1060 RLU; Trimeric HA Binding: RLU [6]: 894 RLU; Trimeric HA Binding: RLU [8]: 108 RLU; Trimeric HA Binding: RLU [9]: 10500 RLU; Trimeric HA Binding: RLU [14]: 306 RLU; Trimeric HA Binding: RLU [17]: 7410 RLU; Trimeric HA Binding: RLU [21]: 29500 RLU; Trimeric HA Binding: RLU [23]: 786 RLU; Trimeric HA Binding: RLU [25]: 1760 RLU
2 | B2 | 450 | 285 | 380 | 2140 | 148 | 534 | 1620 | 464 | 187 | 316 | 2920 | 9440 | 19400 | 3070 | 1330 | 2390 | Trimeric HA Binding: RLU [26]: 402 RLU; Trimeric HA Binding: RLU [27]: 82 RLU; Trimeric HA Binding: RLU [28]: 145 RLU; Trimeric HA Binding: RLU [29]: 154 RLU; Trimeric HA Binding: RLU [30]: 1010 RLU; Trimeric HA Binding: RLU [31]: 203 RLU; Trimeric HA Binding: RLU [32]: 179 RLU; Trimeric HA Binding: RLU [33]: 1690 RLU; Trimeric HA Binding: RLU [34]: 272 RLU; Trimeric HA Binding: RLU [35]: 281 RLU; Trimeric HA Binding: RLU [36]: 997 RLU; Trimeric HA Binding: RLU [37]: 4650 RLU; Trimeric HA Binding: RLU [38]: 1000 RLU; Trimeric HA Binding: RLU [39]: 706 RLU

— patent US20150086555A1
